# Data reported in patent US20120156175A1.
# Biological target: integrin alpha V beta 5 (human) (UniProt P06756)
# Test: cell-based or functional assay
# Sequence of UniProt P06756 (P06756 31-1048, chain 1 of 2): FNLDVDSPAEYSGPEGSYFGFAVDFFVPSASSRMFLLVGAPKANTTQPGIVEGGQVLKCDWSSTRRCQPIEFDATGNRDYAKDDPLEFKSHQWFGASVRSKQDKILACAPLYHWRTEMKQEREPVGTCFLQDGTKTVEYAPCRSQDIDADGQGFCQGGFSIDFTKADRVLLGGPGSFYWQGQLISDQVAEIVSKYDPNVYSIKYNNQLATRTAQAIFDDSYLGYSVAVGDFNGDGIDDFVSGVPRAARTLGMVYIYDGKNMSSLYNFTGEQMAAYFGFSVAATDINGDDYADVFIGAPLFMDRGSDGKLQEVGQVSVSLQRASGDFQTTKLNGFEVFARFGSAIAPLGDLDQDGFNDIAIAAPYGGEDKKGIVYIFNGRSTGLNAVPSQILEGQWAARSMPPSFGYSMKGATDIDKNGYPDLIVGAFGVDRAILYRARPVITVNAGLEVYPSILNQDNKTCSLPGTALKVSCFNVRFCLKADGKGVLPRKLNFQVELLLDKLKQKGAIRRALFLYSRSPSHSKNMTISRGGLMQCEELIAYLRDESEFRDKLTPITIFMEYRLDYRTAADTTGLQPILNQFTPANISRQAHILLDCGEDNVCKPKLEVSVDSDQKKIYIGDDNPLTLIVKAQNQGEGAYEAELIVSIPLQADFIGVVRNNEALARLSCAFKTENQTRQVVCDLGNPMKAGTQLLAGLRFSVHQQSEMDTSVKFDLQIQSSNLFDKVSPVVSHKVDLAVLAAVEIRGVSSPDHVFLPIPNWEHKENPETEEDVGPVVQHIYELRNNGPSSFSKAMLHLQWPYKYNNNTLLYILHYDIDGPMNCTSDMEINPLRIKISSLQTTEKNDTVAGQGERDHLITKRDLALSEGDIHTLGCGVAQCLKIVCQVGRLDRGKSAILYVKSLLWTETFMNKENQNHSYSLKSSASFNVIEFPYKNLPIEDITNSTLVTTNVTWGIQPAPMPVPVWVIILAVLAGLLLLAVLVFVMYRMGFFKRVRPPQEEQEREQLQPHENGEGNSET
# Sequence of UniProt P06756 (P18084 24-799, chain 2 of 2, further chain): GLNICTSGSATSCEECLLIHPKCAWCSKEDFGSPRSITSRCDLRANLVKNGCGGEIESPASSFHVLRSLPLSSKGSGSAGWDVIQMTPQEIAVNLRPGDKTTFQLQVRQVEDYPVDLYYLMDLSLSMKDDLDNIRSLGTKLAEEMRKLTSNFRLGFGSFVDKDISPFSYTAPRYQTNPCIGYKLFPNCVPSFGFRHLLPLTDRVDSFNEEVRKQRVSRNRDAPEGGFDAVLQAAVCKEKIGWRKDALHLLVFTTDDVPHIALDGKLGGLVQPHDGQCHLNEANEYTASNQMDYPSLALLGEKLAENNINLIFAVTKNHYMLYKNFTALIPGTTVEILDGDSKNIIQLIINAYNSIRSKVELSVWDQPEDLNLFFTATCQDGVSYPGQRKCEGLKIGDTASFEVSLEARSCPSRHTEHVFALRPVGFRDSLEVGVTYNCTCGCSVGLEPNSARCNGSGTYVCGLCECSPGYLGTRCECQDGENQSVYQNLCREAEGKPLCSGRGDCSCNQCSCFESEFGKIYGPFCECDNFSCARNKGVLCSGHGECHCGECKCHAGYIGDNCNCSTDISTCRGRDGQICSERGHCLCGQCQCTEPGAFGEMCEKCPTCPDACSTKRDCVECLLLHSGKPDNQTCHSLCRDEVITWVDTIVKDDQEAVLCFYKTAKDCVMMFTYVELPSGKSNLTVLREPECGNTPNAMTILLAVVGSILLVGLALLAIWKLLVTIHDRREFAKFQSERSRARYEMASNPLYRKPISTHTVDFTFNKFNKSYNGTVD
substance,measurement,value
periostin (from UniProt Q15063 22-779) (ligand),"ability to induce the migration of neural stem cells (Boyden chamber assay, HB1.F3 cells, against cells not treated with periostin)",100%
